Assay results from patent US20170088610A1 (RINAT NEUROSCIENCE, published 2017).

Columns and labels:
[1] = biological target: T1, human nerve growth factor (human, UniProt P01138 122-241); test: BIAcore SPR screen, Fab over immobilised human NGF; KD calculated from koff with kon 4e4 M-1s-1
T1 construct: Immobilised on CM5 chips for BIAcore, soluble in neuron survival assays; also called human NGF; hNGF
Procedure: (§1) A screening BIAcore assay was optimized to determine the affinity of Fab clones from libraries. Supernatants of small culture lysates were injected at […] for 2 min. Dissociation times of 10 to 15 minutes were used for determination of a single exponential dissociation rate (koff) using BIAevaluation software. […] Clones showing improved (slower) koff values were expressed at large scale and full kinetic parameters, kₒₙ and koff, were determined on purified protein.
(§2) 20-80 clones from each small library were screened using BIAcore analysis as described herein. Samples were simultaneously analyzed by BIAcore for binding affinity to NGF in one channel of the BIAcore chip and for presence of Fab by binding to a penta-histag antibody in another channel of the sensor chip, to detect the his tag at the C terminus of the heavy chain. Clones that expressed protein were classified as having the same affinity, worse affinity, better affinity or no binding, using koff to classify: The results of this analysis are shown in Table 5.

[2] = biological target: T1, human nerve growth factor; test: BIAcore SPR screen, Fab over immobilised human NGF
Procedure: as §1, §2

T1 sequence (P01138 122-241 limits assumed): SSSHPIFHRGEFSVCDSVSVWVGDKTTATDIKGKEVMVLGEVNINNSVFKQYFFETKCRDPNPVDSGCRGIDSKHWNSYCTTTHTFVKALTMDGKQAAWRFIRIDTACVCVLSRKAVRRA

B1: 8L2-6D5 Fab with CDR H3 mutation D109G (Fab, V domains shown)
VH: QVQLQESGPGLVKPSETLSLTCTVSGFSLIGYDINWIRQPPGKGLEWIGMIWGDGTTDYNSALKSRVTISKDTSKNQFSLKLSSVTAADTAVYYCARGGYYYGTSYYFGYWGQGTLVTVS
VL: DIQMTQSPSSLSASVGDRVTITCRASQDISNHLNWYQQKPGKAPKLLIYYISRFHSGVPSRFSGSGSGTDFTFTISSLQPEDIATYYCQQSKTLPYTFGQGTKLEIKR
notes: See note of m8
Kd [1]: 25 nM | koff [2]: 0.001 s⁻¹

B2: 8L2-6D5 Fab with CDR H3 mutation Y107F (Fab, V domains shown)
VH: QVQLQESGPGLVKPSETLSLTCTVSGFSLIGYDINWIRQPPGKGLEWIGMIWGDGTTDYNSALKSRVTISKDTSKNQFSLKLSSVTAADTAVYYCARGGYYYGTSYFFDYWGQGTLVTVS
VL: DIQMTQSPSSLSASVGDRVTITCRASQDISNHLNWYQQKPGKAPKLLIYYISRFHSGVPSRFSGSGSGTDFTFTISSLQPEDIATYYCQQSKTLPYTFGQGTKLEIKR
notes: See note of m8
Kd [1]: 35 nM | koff [2]: 0.0014 s⁻¹

B3: 8L2-6D5 Fab with CDR H3 mutation T104S (Fab, V domains shown)
VH: QVQLQESGPGLVKPSETLSLTCTVSGFSLIGYDINWIRQPPGKGLEWIGMIWGDGTTDYNSALKSRVTISKDTSKNQFSLKLSSVTAADTAVYYCARGGYYYGSSYYFDYWGQGTLVTVS
VL: DIQMTQSPSSLSASVGDRVTITCRASQDISNHLNWYQQKPGKAPKLLIYYISRFHSGVPSRFSGSGSGTDFTFTISSLQPEDIATYYCQQSKTLPYTFGQGTKLEIKR
notes: See note of m8; also called T1045 (so in the source)
Kd [1]: 55 nM | koff [2]: 0.0022 s⁻¹

B4: 8L2-6D5 Fab with CDR H3 mutation Y110S (Fab, V domains shown)
VH: QVQLQESGPGLVKPSETLSLTCTVSGFSLIGYDINWIRQPPGKGLEWIGMIWGDGTTDYNSALKSRVTISKDTSKNQFSLKLSSVTAADTAVYYCARGGYYYGTSYYFDSWGQGTLVTVS
VL: DIQMTQSPSSLSASVGDRVTITCRASQDISNHLNWYQQKPGKAPKLLIYYISRFHSGVPSRFSGSGSGTDFTFTISSLQPEDIATYYCQQSKTLPYTFGQGTKLEIKR
notes: See note of m8
Kd [1]: 37 nM | koff [2]: 0.0015 s⁻¹

B5: 8L2-6D5 Fab with CDR H3 mutation D109N (Fab, V domains shown)
VH: QVQLQESGPGLVKPSETLSLTCTVSGFSLIGYDINWIRQPPGKGLEWIGMIWGDGTTDYNSALKSRVTISKDTSKNQFSLKLSSVTAADTAVYYCARGGYYYGTSYYFNYWGQGTLVTVS
VL: DIQMTQSPSSLSASVGDRVTITCRASQDISNHLNWYQQKPGKAPKLLIYYISRFHSGVPSRFSGSGSGTDFTFTISSLQPEDIATYYCQQSKTLPYTFGQGTKLEIKR
notes: See note of m8
Kd [1]: 37 nM | koff [2]: 0.0015 s⁻¹

B6: 8L2-6D5 Fab with CDR H3 mutation Y110R (Fab, V domains shown)
VH: QVQLQESGPGLVKPSETLSLTCTVSGFSLIGYDINWIRQPPGKGLEWIGMIWGDGTTDYNSALKSRVTISKDTSKNQFSLKLSSVTAADTAVYYCARGGYYYGTSYYFDRWGQGTLVTVS
VL: DIQMTQSPSSLSASVGDRVTITCRASQDISNHLNWYQQKPGKAPKLLIYYISRFHSGVPSRFSGSGSGTDFTFTISSLQPEDIATYYCQQSKTLPYTFGQGTKLEIKR
notes: See note of m8
Kd [1]: 40 nM | koff [2]: 0.0016 s⁻¹

B7: 8L2-6D5 Fab with CDR H3 mutation Y100R (Fab, V domains shown)
VH: QVQLQESGPGLVKPSETLSLTCTVSGFSLIGYDINWIRQPPGKGLEWIGMIWGDGTTDYNSALKSRVTISKDTSKNQFSLKLSSVTAADTAVYYCARGGRYYGTSYYFDYWGQGTLVTVS
VL: DIQMTQSPSSLSASVGDRVTITCRASQDISNHLNWYQQKPGKAPKLLIYYISRFHSGVPSRFSGSGSGTDFTFTISSLQPEDIATYYCQQSKTLPYTFGQGTKLEIKR
notes: See note of m8
Kd [1]: 27 nM | koff [2]: 0.0011 s⁻¹

B8: 8L2-6D5 Fab with CDR H3 mutation Y101W (Fab, V domains shown)
VH: QVQLQESGPGLVKPSETLSLTCTVSGFSLIGYDINWIRQPPGKGLEWIGMIWGDGTTDYNSALKSRVTISKDTSKNQFSLKLSSVTAADTAVYYCARGGYWYGTSYYFDYWGQGTLVTVS
VL: DIQMTQSPSSLSASVGDRVTITCRASQDISNHLNWYQQKPGKAPKLLIYYISRFHSGVPSRFSGSGSGTDFTFTISSLQPEDIATYYCQQSKTLPYTFGQGTKLEIKR
notes: W101 is the E3 residue, so it is kept; See note of m8
Kd [1]: 14 nM | koff [2]: 0.00056 s⁻¹

B9: 8L2-6D5 Fab with CDR L3 mutation S91E (Fab, V domains shown)
VH: QVQLQESGPGLVKPSETLSLTCTVSGFSLIGYDINWIRQPPGKGLEWIGMIWGDGTTDYNSALKSRVTISKDTSKNQFSLKLSSVTAADTAVYYCARGGYYYGTSYYFDYWGQGTLVTVS
VL: DIQMTQSPSSLSASVGDRVTITCRASQDISNHLNWYQQKPGKAPKLLIYYISRFHSGVPSRFSGSGSGTDFTFTISSLQPEDIATYYCQQEKTLPYTFGQGTKLEIKR
notes: E91 is the E3 residue, so it is kept; See note of m8
Kd [1]: 6 nM | koff [2]: 0.00025 s⁻¹

B10: 8L2-6D5 Fab with CDR H3 mutation Y106T (Fab, V domains shown)
VH: QVQLQESGPGLVKPSETLSLTCTVSGFSLIGYDINWIRQPPGKGLEWIGMIWGDGTTDYNSALKSRVTISKDTSKNQFSLKLSSVTAADTAVYYCARGGYYYGTSTYFDYWGQGTLVTVS
VL: DIQMTQSPSSLSASVGDRVTITCRASQDISNHLNWYQQKPGKAPKLLIYYISRFHSGVPSRFSGSGSGTDFTFTISSLQPEDIATYYCQQSKTLPYTFGQGTKLEIKR
notes: See note of m8
Kd [1]: 50 nM | koff [2]: 0.002 s⁻¹

B11: 8L2-6D5 Fab with CDR H3 mutation Y100L (Fab, V domains shown)
VH: QVQLQESGPGLVKPSETLSLTCTVSGFSLIGYDINWIRQPPGKGLEWIGMIWGDGTTDYNSALKSRVTISKDTSKNQFSLKLSSVTAADTAVYYCARGGLYYGTSYYFDYWGQGTLVTVS
VL: DIQMTQSPSSLSASVGDRVTITCRASQDISNHLNWYQQKPGKAPKLLIYYISRFHSGVPSRFSGSGSGTDFTFTISSLQPEDIATYYCQQSKTLPYTFGQGTKLEIKR
notes: See note of m8
Kd [1]: 30 nM | koff [2]: 0.0012 s⁻¹

B12: 8L2-6D5 Fab with CDR H3 mutation S105T (Fab, V domains shown)
VH: QVQLQESGPGLVKPSETLSLTCTVSGFSLIGYDINWIRQPPGKGLEWIGMIWGDGTTDYNSALKSRVTISKDTSKNQFSLKLSSVTAADTAVYYCARGGYYYGTTYYFDYWGQGTLVTVS
VL: DIQMTQSPSSLSASVGDRVTITCRASQDISNHLNWYQQKPGKAPKLLIYYISRFHSGVPSRFSGSGSGTDFTFTISSLQPEDIATYYCQQSKTLPYTFGQGTKLEIKR
notes: See note of m8
Kd [1]: 16 nM | koff [2]: 0.00064 s⁻¹

B13: 8L2-6D5 Fab with CDR H3 mutation F108W (Fab, V domains shown)
VH: QVQLQESGPGLVKPSETLSLTCTVSGFSLIGYDINWIRQPPGKGLEWIGMIWGDGTTDYNSALKSRVTISKDTSKNQFSLKLSSVTAADTAVYYCARGGYYYGTSYYWDYWGQGTLVTVS
VL: DIQMTQSPSSLSASVGDRVTITCRASQDISNHLNWYQQKPGKAPKLLIYYISRFHSGVPSRFSGSGSGTDFTFTISSLQPEDIATYYCQQSKTLPYTFGQGTKLEIKR
notes: See note of m8
Kd [1]: 30 nM | koff [2]: 0.00122 s⁻¹

B14: 8L2-6D5 Fab with CDR H3 mutation Y110K (Fab, V domains shown)
VH: QVQLQESGPGLVKPSETLSLTCTVSGFSLIGYDINWIRQPPGKGLEWIGMIWGDGTTDYNSALKSRVTISKDTSKNQFSLKLSSVTAADTAVYYCARGGYYYGTSYYFDKWGQGTLVTVS
VL: DIQMTQSPSSLSASVGDRVTITCRASQDISNHLNWYQQKPGKAPKLLIYYISRFHSGVPSRFSGSGSGTDFTFTISSLQPEDIATYYCQQSKTLPYTFGQGTKLEIKR
notes: See note of m8
Kd [1]: 35 nM | koff [2]: 0.0014 s⁻¹

B15: 8L2-6D5 Fab with CDR H3 mutation Y106M (Fab, V domains shown)
VH: QVQLQESGPGLVKPSETLSLTCTVSGFSLIGYDINWIRQPPGKGLEWIGMIWGDGTTDYNSALKSRVTISKDTSKNQFSLKLSSVTAADTAVYYCARGGYYYGTSMYFDYWGQGTLVTVS
VL: DIQMTQSPSSLSASVGDRVTITCRASQDISNHLNWYQQKPGKAPKLLIYYISRFHSGVPSRFSGSGSGTDFTFTISSLQPEDIATYYCQQSKTLPYTFGQGTKLEIKR
notes: See note of m8
Kd [1]: 67 nM | koff [2]: 0.0027 s⁻¹

B16: 8L2-6D5 Fab with CDR H3 mutation Y110T (Fab, V domains shown)
VH: QVQLQESGPGLVKPSETLSLTCTVSGFSLIGYDINWIRQPPGKGLEWIGMIWGDGTTDYNSALKSRVTISKDTSKNQFSLKLSSVTAADTAVYYCARGGYYYGTSYYFDTWGQGTLVTVS
VL: DIQMTQSPSSLSASVGDRVTITCRASQDISNHLNWYQQKPGKAPKLLIYYISRFHSGVPSRFSGSGSGTDFTFTISSLQPEDIATYYCQQSKTLPYTFGQGTKLEIKR
notes: See note of m8
Kd [1]: 42 nM | koff [2]: 0.0017 s⁻¹

B17: 8L2-6D5 Fab with CDR H3 mutation S105A (Fab, V domains shown)
VH: QVQLQESGPGLVKPSETLSLTCTVSGFSLIGYDINWIRQPPGKGLEWIGMIWGDGTTDYNSALKSRVTISKDTSKNQFSLKLSSVTAADTAVYYCARGGYYYGTAYYFDYWGQGTLVTVS
VL: DIQMTQSPSSLSASVGDRVTITCRASQDISNHLNWYQQKPGKAPKLLIYYISRFHSGVPSRFSGSGSGTDFTFTISSLQPEDIATYYCQQSKTLPYTFGQGTKLEIKR
notes: See note of m8
Kd [1]: 13 nM | koff [2]: 0.00051 s⁻¹

B18: 8L2-6D5 Fab with CDR H3 mutation Y106R (Fab, V domains shown)
VH: QVQLQESGPGLVKPSETLSLTCTVSGFSLIGYDINWIRQPPGKGLEWIGMIWGDGTTDYNSALKSRVTISKDTSKNQFSLKLSSVTAADTAVYYCARGGYYYGTSRYFDYWGQGTLVTVS
VL: DIQMTQSPSSLSASVGDRVTITCRASQDISNHLNWYQQKPGKAPKLLIYYISRFHSGVPSRFSGSGSGTDFTFTISSLQPEDIATYYCQQSKTLPYTFGQGTKLEIKR
notes: See note of m8
Kd [1]: 40 nM | koff [2]: 0.0016 s⁻¹

B19: 8L2-6D5 Fab with CDR H3 mutation G103A (Fab, V domains shown)
VH: QVQLQESGPGLVKPSETLSLTCTVSGFSLIGYDINWIRQPPGKGLEWIGMIWGDGTTDYNSALKSRVTISKDTSKNQFSLKLSSVTAADTAVYYCARGGYYYATSYYFDYWGQGTLVTVS
VL: DIQMTQSPSSLSASVGDRVTITCRASQDISNHLNWYQQKPGKAPKLLIYYISRFHSGVPSRFSGSGSGTDFTFTISSLQPEDIATYYCQQSKTLPYTFGQGTKLEIKR
notes: A103 is the E3 residue, so it is kept; See note of m8
Kd [1]: 4 nM | koff [2]: 0.00016 s⁻¹
